Here are results for 10 molecules from publication PMC11832219 (Molecular cell, 2024).

Sequences and labels used below:
T1: MED17 (human (endogenous in 293-F), UniProt Q9NVC6 1-651)
T1 sequence (looked up): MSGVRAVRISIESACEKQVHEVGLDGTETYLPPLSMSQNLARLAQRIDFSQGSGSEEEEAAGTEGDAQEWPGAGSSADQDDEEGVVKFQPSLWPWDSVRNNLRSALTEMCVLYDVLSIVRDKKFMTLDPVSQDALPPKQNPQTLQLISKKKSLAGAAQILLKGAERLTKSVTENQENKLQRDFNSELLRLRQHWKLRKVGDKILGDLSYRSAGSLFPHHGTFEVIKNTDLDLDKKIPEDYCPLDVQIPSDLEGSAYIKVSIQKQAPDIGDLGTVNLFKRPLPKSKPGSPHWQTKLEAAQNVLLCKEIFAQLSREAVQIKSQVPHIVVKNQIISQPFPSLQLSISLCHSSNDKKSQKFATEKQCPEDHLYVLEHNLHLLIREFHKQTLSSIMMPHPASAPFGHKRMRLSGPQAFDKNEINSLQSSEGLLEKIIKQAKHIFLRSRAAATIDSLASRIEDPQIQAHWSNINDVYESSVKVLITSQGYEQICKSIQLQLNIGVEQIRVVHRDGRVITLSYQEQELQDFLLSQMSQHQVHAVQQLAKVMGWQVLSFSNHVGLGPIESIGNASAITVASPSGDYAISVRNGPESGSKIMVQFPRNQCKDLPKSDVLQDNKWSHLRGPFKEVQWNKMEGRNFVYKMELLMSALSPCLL

B1: MED7 (natural protein, human (endogenous in 293-F), UniProt O43513 1-233, looked up)
chain: MGEPQQVSALPPPPMQYIKEYTDENIQEGLAPKPPPPIKDSYMMFGNQFQCDDLIIRPLESQGIERLHPMQFDHKKELRKLNMSILINFLDLLDILIRSPGSIKREEKLEDLKLLFVHVHHLINEYRPHQARETLRVMMEVQKRQRLETAERFQKHLERVIEMIQNCLASLPDDLPHSEAGMRVKTEPMDADDSNNCTGQNEHQRENSGHRRDQIIEKDAALCVLIDEMNERP
B2: CCNC-6xHis (recombinant CKM subunit) (natural protein, human)
chain: MAGNFWQSSHYLQWILDKQDLLKERQKDLKFLSEEEYWKLQIFFTNVIQALGEHLKLRQQVIATATVYFKRFYARYSLKSIDPVLMAPTCVFLASKVEEFGVVSNTRLIAAATSVLKTRFSYAFPKEFPYRMNHILECEFYLLELMDCCLIVYHPYRPLLQYVQDMGQEDMLLPLAWRIVNDTYRTDLCLLYPPFMIALACLHVACVVQQKDARQWFAELSVDMEKILEIIRVILKLYEQWKNFDERKEMATILSKMPKPKPPPNSEGEQGPNGSQNSSYSQS
B3: CCNC (natural protein, human (endogenous in 293-F), UniProt P24863 1-283, looked up)
chain: B2 chain
B4: MED31 (natural protein, human (endogenous in 293-F), UniProt Q9Y3C7 1-131, looked up)
chain: MAAAVAMETDDAGNRLRFQLELEFVQCLANPNYLNFLAQRGYFKDKAFVNYLKYLLYWKDPEYAKYLKYPQCLHMLELLQYEHFRKELVNAQCAKFIDEQQILHWQHYSRKRMRLQQALAEQQQQNNTSGK
B5: MED8 (natural protein, human (endogenous in 293-F), UniProt Q96G25 1-268, looked up)
chain: MQREEKQLEASLDALLSQVADLKNSLGSFICKLENEYGRLTWPSVLDSFALLSGQLNTLNKVLKHEKTPLFRNQVIIPLVLSPDRDEDLMRQTEGRVPVFSHEVVPDHLRTKPDPEVEEQEKQLTTDAARIGADAAQKQIQSLNKMCSNLLEKISKEERESESGGLRPNKQTFNPTDTNALVAAVAFGKGLSNWRPSGSSGPGQAGQPGAGTILAGTSGLQQVQMAGAPSQQQPMLSGVQMAQAGQPGKMPSGIKTNIKSASMHPYQR
B6: MED6 (natural protein, human (endogenous in 293-F), UniProt O75586 1-246, looked up)
chain: MAAVDIRDNLLGISWVDSSWIPILNSGSVLDYFSERSNPFYDRTCNNEVVKMQRLTLEHLNQMVGIEYILLHAQEPILFIIRKQQRQSPAQVIPLADYYIIAGVIYQAPDLGSVINSRVLTAVHGIQSAFDEAMSYCRYHPSKGYWWHFKDHEEQDKVRPKAKRKEEPSSIFQRQRVDALLLDLRQKFPPKFVQLKPGEKPVPVDQTKKEAEPIPETVKPEEKETTKNVQQTVSAKGPPEKRMRLQ
B7: MED19 (natural protein, human (endogenous in 293-F), UniProt A0JLT2 1-244, looked up)
chain: MENFTALFGAQADPPPPPTALGFGPGKPPPPPPPPAGGGPGTAPPPTAATAPPGADKSGAGCGPFYLMRELPGSTELTGSTNLITHYNLEQAYNKFCGKKVKEKLSNFLPDLPGMIDLPGSHDNSSLRSLIEKPPILSSSFNPITGTMLAGFRLHTGPLPEQCRLMHIQPPKKKNKHKHKQSRTQDPVPPETPSDSDHKKKKKKKEEDPDRKRKKKEKKKKKNRHSPDHPGMGSSQASSSSSLR
B8: Flag-tagged MED13 IDRc (residues 500–1069), expressed in 293-F cells (domain or fragment, human, UniProt Q9UHV7 500-1069, looked up)
chain: SAPDSQVRFSNIRTNDVAKTPQMHGTEMANSPQPPPLSPHPCDVVDEGVTKTPSTPQSQHFYQMPTPDPLVPSKPMEDRIDSLSQSFPPQYQEAVEPTVYVGTAVNLEEDEANIAWKYYKFPKKKDVEFLPPQLPSDKFKDDPVGPFGQESVTSVTELMVQCKKPLKVSDELVQQYQIKNQCLSAIASDAEQEPKIDPYAFVEGDEEFLFPDKKDRQNSEREAGKKHKVEDGTSSVTVLSHEEDAMSLFSPSIKQDAPRPTSHARPPSTSLIYDSDLAVSYTDLDNLFNSDEDELTPGSKKSANGSDDKASCKESKTGNLDPLSCISTADLHKMYPTPPSLEQHIMGFSPMNMNNKEYGSMDTTPGGTVLEGNSSSIGAQFKIEVDEGFCSPKPSEIKDFSYVYKPENCQILVGCSMFAPLKTLPSQYLPPIKLPEECIYRQSWTVGKLELLSSGPSMPFIKEGDGSNMDQEYGTAYTPQTHTSFGMPPSSAPPSNSGAGILPSPSTPRFPTPRTPRTPRTPRGAGGPASAQGSVKYENSDLYSPASTPSTCRPLNSVEPATVPSIPEAH
B9: MED10 (natural protein, human (endogenous in 293-F), UniProt Q9BTT4 1-135, looked up)
chain: MAEKFDHLEEHLEKFVENIRQLGIIVSDFQPSSQAGLNQKLNFIVTGLQDIDKCRQQLHDITVPLEVFEYIDQGRNPQLYTKECLERALAKNEQVKGKIDTMKKFKSLLIQELSKVFPEDMAKYRSIRGEDHPPS
B10: MED21 (natural protein, human (endogenous in 293-F), UniProt Q13503 1-144, looked up)
chain: MADRLTQLQDAVNSLADQFCNAIGVLQQCGPPASFNNIQTAINKDQPANPTEEYAQLFAALIARTAKDIDVLIDSLPSEESTAALQAASLYKLEEENHEAATCLEDVVYRGDMLLEKIQSALADIAQSQLKTRSGTHSQSLPDS

In test [1] the target is B8. The test is described as follows: cryo-EM structure.
Test [2] addresses CDK8-Flag (recombinant CKM subunit) (human, UniProt P49336 1-464). The test is described as follows: cryo-EM structure.
For test [3], the target named is MED12 (human (endogenous in 293-F), UniProt Q93074 1-2177). The test is described as follows: cross-linking.
Chain of MED12 (Q93074 whole entry): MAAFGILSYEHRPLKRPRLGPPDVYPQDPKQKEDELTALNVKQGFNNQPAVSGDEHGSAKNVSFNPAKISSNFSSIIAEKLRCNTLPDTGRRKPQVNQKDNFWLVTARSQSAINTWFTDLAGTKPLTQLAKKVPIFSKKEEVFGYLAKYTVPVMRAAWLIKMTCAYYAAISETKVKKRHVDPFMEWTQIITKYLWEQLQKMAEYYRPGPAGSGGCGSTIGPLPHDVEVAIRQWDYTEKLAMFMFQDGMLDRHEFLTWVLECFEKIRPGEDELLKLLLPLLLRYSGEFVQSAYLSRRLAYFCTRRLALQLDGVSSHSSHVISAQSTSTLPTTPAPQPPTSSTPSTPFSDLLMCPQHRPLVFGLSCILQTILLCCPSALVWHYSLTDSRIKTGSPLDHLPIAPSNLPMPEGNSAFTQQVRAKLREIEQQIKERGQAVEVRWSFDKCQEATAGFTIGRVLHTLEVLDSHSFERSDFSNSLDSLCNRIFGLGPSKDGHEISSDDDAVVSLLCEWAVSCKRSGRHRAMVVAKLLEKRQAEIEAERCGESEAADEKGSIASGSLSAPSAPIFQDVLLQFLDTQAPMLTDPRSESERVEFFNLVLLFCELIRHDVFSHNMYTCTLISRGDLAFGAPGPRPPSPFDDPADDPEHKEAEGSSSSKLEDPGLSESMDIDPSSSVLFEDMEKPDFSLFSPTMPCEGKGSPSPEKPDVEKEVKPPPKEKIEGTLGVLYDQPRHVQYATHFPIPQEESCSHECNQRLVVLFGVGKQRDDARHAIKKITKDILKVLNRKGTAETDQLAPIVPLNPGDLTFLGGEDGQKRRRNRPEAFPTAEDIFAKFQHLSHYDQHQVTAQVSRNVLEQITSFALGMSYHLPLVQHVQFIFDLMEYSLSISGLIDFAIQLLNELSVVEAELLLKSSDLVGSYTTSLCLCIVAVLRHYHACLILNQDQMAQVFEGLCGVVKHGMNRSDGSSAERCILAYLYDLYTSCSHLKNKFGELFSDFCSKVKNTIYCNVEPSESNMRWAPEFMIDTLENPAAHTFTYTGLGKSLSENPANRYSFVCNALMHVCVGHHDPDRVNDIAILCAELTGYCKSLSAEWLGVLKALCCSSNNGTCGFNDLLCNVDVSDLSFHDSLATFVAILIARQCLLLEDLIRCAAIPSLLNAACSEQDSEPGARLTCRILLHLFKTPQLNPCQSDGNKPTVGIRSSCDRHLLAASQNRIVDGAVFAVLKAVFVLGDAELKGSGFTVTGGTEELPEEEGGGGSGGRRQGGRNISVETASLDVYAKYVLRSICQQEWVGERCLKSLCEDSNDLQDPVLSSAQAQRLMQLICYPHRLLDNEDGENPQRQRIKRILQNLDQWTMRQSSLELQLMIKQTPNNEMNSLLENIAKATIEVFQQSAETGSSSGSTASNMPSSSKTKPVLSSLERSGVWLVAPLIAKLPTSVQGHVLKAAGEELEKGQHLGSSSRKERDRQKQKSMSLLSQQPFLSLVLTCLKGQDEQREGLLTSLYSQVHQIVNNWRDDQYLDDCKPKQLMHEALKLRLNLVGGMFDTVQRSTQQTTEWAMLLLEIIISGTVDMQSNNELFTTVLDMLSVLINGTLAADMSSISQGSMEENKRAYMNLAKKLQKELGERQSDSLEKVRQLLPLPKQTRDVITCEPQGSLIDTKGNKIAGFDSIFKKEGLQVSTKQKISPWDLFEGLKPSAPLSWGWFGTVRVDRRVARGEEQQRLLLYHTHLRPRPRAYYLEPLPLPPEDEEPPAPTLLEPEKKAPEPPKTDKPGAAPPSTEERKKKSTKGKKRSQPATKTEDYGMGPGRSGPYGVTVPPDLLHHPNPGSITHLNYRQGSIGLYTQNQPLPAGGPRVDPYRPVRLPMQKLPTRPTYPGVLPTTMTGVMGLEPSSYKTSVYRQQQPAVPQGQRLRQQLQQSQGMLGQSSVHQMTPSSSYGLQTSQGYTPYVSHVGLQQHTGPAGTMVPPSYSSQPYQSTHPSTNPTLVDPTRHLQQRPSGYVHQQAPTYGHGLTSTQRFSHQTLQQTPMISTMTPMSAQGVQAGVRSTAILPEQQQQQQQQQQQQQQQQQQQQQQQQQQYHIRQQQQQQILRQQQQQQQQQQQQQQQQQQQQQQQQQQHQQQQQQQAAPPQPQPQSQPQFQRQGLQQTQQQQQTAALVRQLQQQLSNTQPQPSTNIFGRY
Test [4] has as its target T2, MED13 (human (endogenous in 293-F), UniProt Q9UHV7 1-2174). Description: cross-linking.
For test [5], the target named is T2, MED13. Description: cryo-EM structure.
For test [6], the target named is MED14 (human (endogenous in 293-F), UniProt O60244 1-1454). The test is described as follows: cryo-EM structure.
The target in test [7] is T1, MED17. The test is described as follows: cryo-EM structure.
The target in test [8] is MED12L (human (endogenous in 293-F), UniProt Q86YW9 1-2145). The test is described as follows: cross-linking.

T2 sequence (Q9UHV7 whole entry): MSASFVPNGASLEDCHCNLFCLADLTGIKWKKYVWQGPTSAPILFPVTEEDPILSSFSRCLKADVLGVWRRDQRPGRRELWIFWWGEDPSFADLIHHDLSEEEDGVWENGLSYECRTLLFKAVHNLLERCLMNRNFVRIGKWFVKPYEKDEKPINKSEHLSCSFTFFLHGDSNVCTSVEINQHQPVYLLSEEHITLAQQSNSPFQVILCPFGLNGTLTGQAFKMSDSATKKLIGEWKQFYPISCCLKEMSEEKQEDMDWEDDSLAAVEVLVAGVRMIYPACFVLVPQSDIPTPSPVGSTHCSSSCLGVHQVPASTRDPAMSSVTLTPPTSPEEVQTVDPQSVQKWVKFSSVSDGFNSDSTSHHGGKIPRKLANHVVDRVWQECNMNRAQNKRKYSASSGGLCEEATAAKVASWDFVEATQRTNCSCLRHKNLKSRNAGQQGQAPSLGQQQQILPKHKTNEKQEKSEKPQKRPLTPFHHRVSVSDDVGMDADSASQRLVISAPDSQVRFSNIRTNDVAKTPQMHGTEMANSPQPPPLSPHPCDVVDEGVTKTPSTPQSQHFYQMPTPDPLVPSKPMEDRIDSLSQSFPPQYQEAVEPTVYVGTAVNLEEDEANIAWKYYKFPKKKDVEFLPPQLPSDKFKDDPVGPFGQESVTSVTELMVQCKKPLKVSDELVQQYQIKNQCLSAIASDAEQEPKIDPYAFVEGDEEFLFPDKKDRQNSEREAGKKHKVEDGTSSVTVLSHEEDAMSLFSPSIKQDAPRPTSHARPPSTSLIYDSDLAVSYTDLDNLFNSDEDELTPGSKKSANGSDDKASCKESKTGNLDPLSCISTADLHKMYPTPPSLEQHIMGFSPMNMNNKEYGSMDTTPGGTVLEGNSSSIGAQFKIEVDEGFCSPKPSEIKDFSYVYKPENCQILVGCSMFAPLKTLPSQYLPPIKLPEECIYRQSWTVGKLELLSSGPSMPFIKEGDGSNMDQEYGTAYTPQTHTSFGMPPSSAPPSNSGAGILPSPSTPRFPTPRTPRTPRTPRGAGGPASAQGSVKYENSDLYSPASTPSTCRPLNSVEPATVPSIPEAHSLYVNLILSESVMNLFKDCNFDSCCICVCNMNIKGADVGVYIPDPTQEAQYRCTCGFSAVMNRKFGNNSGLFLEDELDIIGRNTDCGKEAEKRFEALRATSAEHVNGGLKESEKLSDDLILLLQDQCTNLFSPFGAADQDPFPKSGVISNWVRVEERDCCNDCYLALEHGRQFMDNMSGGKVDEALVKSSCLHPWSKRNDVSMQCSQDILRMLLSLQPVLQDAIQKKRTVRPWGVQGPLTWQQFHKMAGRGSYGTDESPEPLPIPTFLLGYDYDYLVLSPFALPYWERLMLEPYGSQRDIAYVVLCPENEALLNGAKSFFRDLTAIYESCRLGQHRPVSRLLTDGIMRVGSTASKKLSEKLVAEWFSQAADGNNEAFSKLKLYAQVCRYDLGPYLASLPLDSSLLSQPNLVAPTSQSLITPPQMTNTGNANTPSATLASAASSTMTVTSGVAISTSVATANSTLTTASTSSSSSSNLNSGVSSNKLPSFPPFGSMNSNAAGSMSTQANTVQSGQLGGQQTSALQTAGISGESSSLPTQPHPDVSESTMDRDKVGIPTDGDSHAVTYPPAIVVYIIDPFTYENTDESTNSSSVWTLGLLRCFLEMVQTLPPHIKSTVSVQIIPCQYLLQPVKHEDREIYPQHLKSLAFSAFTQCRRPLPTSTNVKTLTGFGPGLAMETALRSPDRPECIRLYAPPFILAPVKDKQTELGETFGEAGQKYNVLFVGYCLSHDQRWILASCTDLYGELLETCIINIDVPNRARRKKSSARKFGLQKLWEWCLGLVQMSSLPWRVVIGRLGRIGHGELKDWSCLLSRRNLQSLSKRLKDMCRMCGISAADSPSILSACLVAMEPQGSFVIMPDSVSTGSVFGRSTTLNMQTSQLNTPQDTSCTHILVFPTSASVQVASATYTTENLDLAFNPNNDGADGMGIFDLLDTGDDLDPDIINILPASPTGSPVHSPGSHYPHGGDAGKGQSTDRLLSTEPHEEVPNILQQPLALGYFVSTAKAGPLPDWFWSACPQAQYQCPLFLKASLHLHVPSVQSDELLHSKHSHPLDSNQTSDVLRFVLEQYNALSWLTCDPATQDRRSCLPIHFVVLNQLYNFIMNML
Chain of CDK8-Flag (recombinant CKM subunit) (P49336 whole entry): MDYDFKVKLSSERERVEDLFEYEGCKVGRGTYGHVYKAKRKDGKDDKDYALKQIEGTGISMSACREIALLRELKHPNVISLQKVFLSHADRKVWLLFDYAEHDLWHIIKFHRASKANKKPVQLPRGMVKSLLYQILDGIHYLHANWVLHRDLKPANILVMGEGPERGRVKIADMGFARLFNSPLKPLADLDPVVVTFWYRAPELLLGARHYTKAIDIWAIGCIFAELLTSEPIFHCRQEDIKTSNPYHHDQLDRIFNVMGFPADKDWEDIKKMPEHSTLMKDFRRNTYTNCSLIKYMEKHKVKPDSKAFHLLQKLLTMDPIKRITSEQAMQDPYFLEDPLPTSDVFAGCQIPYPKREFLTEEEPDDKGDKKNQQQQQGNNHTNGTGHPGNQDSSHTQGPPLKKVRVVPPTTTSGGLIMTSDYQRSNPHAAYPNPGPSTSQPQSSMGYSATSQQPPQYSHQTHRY

As to B1, in test [1], the binding result is “binds”.

With B2, the binding result in test [2] is “binds”.

On to B3, for which the binding result in test [3] is given as “binds”.

With B4, the binding result in test [4] is reported as “binds”.

Turning to B5, the binding result in test [1] is on record as “binds”.

Regarding B6, the binding result in test [1] was “binds”.

On to B7, for which the binding result in test [3] and in test [5] was “binds” throughout.

For B8, the binding result in test [6] and in test [7] was “binds” throughout.

As to B9, the binding result in test [3], in test [4] and in test [8] was “binds” each time.

As for B10, the binding result in test [1] is recorded as “binds”.
